Results taken from the supplement of paper PMC10567573.

B1: RSPH3 (parent)
chain: LELQRQREARKRALARKQAQEQLR
B2: OAS1 (parent)
chain: LTVYAWERGSMKTHFNTAQGFRTV

Variants of: B1
Assay: protein stability index of a GFP-peptide fusion (GPS, HEK-293T) (PSI 1-6); higher = more stable
Conditions: c terminus: a fixed tail appended
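Also: lentivirally expressed fusions sorted by FACS into six bins by GFP to DsRed ratio, PSI derived from sequencing read proportions per bin multiplied by bin number.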

Protein stability index, by site and new letter:
K17: Q 4.15 | R 4.38 | M 4.14 | I 3.77 | P 4.48 | S 4.21 | H 4.17 | V 4.31 | G 4.66 | Y 3.71 | A 4.1 | D 3.92 | E 4.69 | T 4.43 | F 3.95 | N 4.45 | L 3.97 | C 3.77 | W 3.44
L23: Q 4.35 | H 4.25 | V 2.77 | S 3.78 | N 3.92 | T 4.08 | G 4.78 | W 3.69 | I 3.56 | M 4.31 | K 3.83 | R 4.16 | D 4.42 | A 4.96 | E 4.59 | P 3.78 | Y 3.9 | F 3.96 | C 4.26
E21: H 3.23 | W 3.48 | I 3.33 | A 2.72 | C 3.01 | G 3.09 | D 3.62 | T 3.81 | N 3.87 | R 3.99 | K 4.28 | Q 3.23 | P 3.45 | S 3.73 | F 2.93 | V 3.31 | M 3.75 | Y 3 | L 3.48
R10: P 4.3 | M 3.76 | T 3.92 | Y 3.17 | L 3.62 | K 3.07 | I 3.22 | Q 4.43 | H 3.79 | N 4.28 | W 3.53 | S 4.2 | V 3.38
A19: S 4.17 | N 4.08 | D 4.37 | H 4.33 | C 4.22 | L 3.09 | K 4.08 | P 3.72 | I 3.55 | V 3.27 | F 3.08 | M 3.37 | T 4 | W 3.15 | Q 4.54 | Y 2.92 | G 3.53 | E 3.28
K11: N 3.8 | D 4.51 | F 3.46 | I 3.27 | M 3.5 | V 2.74 | G 4.44 | T 3.46 | L 3.82 | R 3.78 | Y 3.07 | A 3.84 | H 4.44 | Q 4.35 | P 3.82 | S 4.11 | E 4.35 | W 2.92 | C 2.94
Q22: E 3.8 | R 3.93 | F 3.04 | N 4.14 | I 2.65 | S 3.5 | G 4.22 | D 4.29 | V 3.37 | M 2.92 | W 2.8 | K 3.77 | Y 3.01 | P 3.79 | T 3.16 | L 3.63 | C 3.11 | H 2.95 | A 4.19
R16: H 4.14 | G 4.46 | Q 3.96 | W 3.74 | T 4.02 | L 4.25 | S 3.27 | I 3.7 | P 4.32 | E 4.26 | K 3.93 | N 4.6 | Y 3.4 | F 3.43 | M 3.39 | C 3.57 | V 3.17 | D 3.99 | A 4.19
Q18: H 3.11 | T 4.05 | F 3.53 | V 2.56 | Y 2.81 | S 3.38 | N 3.68 | P 4.32 | W 2.5 | R 3.64 | C 2.81 | M 3.46 | A 3.12 | I 2.33 | K 3.39 | E 3.86 | G 3.4 | L 3.13
R24: P 3.86 | I 3.46 | Y 3.16 | F 3.77 | D 4.2 | E 4.56 | S 3.8 | T 3.82 | L 3.18 | G 4.13 | A 3.97 | W 2.98 | V 4.43 | M 3.33 | K 3.72 | Q 4.54 | H 3.85 | N 4.23 | C 4.13
R12: Y 3.77 | E 4.71 | S 3.81 | H 3.71 | Q 4.33 | W 3.21 | D 4.15 | K 3.97 | L 3.22 | G 4.23 | V 3.81 | P 4.25 | N 4.45 | A 4.23 | M 4.18 | F 2.82 | I 4.21 | T 3.79 | C 3.9
Q20: N 3.11 | D 4.74 | F 2.02 | W 2.04 | G 3.52 | I 3.47 | S 3.77 | C 3.35 | M 2.88 | Y 2.45 | T 3.79 | A 3.61 | P 4.32 | V 3.78 | K 4.38 | E 4.48 | R 3.79 | L 2.8 | H 3.77
A15: G 4.12 | P 4.2 | Y 3.61 | H 3.96 | W 3.53 | N 4.32 | I 3.15 | D 3.94 | R 3.15 | L 4.05 | E 4.31 | K 3.57 | V 3.69 | Q 2.39 | S 4.04 | F 3.56 | M 2.79 | C 3.42
L14: T 4.19 | D 4.66 | K 3.46 | V 4.13 | G 4.75 | E 4.35 | S 4.42 | A 4.46 | F 3.74 | Q 4.53 | M 3.32 | Y 3.22 | W 2.65 | R 4.4 | C 3.74 | N 4.04 | I 3.67 | P 4.39 | H 4.32
A13: F 3.39 | R 4.18 | T 3.85 | K 3.36 | P 4.14 | N 4.25 | W 3.73 | Y 3.49 | C 3.24 | Q 4.45 | M 3.29 | L 3.35 | D 4.07 | E 4.5 | S 3.77 | H 4.06 | G 3.33 | I 3.76 | V 3.78

Variants of: B2
Assay: as above
Conditions: c terminus: a fixed tail appended

Protein stability index: each site, then its substitutions
W6: I 2.41 | G 1.73 | K 1.53
A5: S 1.91 | R 2.9
T2: R 2.04 | H 2.11 | D 1.8
M11: R 2.16
G9: S 2.49 | L 2.91
T23: N 3.21 | D 3.86
H14: P 2.56 | E 2.42 | Y 2.75
T13: A 2.88
R22: D 2.38 | K 1.71 | P 3.8
Q19: M 3.27
V24: H 1.61 | K 1.71
R8: H 2.13 | K 1.53 | V 2.77 | D 2.89
Y4: F 2.96
K12: S 4.72 | T 2.98 | E 2.22
L1: M 2.57 | V 1.5 | S 2.1 | T 2.09
N16: K 3.06
T17: P 2.2 | M 1.74 | I 3.17 | F 2.25
V3: T 1.96 | I 3.14
F15: Q 1.53 | H 2.39 | N 1.55 | W 2.62
F21: A 1.9
E7: D 2.14 | C 3.64 | F 2.85
G20: N 2.19 | F 2.39 | H 2.56 | R 3.81
S10: N 2.53 | Q 1.99 | A 2.05 | Y 3.69
